Measured values reported in IntAct's records for PubMed 16615911.

B1: E3 ubiquitin-protein ligase SIAH1A (Mus musculus), P61092 (parent)
chain: MSRQTATALPTGTSKCPPSQRVPALTGTTASNNDLASLFECPVCFDYVLPPILQCQSGHLVCSNCRPKLTCCPTCRGPLGSIRNLAMEKVANSVLFPCKYASSGCEITLPHTEKAEHEELCEFRPYSCPCPGASCKWQGSLDAVMPHLMHQHKSITTLQGEDIVFLATDINLPGAVDWVMMQSCFGFHFMLVLEKQEKYDGHQQFFAIVQLIGTRKQAENFAYRLELNGHRRRLTWEATPRSIHEGIATAIMNSDCLVFDTSIAQLFAENGNLGINVTISMC
partner: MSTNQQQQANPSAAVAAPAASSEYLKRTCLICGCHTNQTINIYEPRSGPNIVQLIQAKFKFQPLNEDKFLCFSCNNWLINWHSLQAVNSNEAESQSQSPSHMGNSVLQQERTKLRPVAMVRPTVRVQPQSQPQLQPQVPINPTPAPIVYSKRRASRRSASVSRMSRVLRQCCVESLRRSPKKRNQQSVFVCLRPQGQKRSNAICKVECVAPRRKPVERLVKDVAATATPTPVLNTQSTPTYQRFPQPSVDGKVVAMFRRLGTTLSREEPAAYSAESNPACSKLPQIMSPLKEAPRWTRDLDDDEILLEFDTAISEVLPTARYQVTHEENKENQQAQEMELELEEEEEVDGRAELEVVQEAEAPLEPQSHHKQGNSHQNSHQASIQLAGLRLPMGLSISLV

Variants of: B1
Conditions: with phyl_drome phyl

Variant	effect of a mutation on the interaction
M180K	disrupting interaction
L158D	disrupting interaction strength
